Source: ChEMBL document CHEMBL3526122, “Identification of UDP-glucuronosyltransferases responsible for the glucuronidation of darexaban, an oral factor Xa inhibitor, in human liver and intestine” (Drug Metab Dispos, 2012)

What was measured:
Liver microsome = assay: Drug level in human liver microsomes treated with darexaban at 30 uM after 10 mins by LC-MS/MS analysis in presence of UDPGA; assay type: ADME
[1] = Drug level in human intestinal microsomes treated with darexaban at 30 uM after 10 mins by LC-MS/MS analysis in presence of UDPGA; assay type: ADME, Intestine, Microsome
[2] = substrate: COc1ccc(C(=O)Nc2cccc(O)c2NC(=O)c2ccc(N3CCCN(C)CC3)cc2)cc1; assay: Activity of human recombinant UGT1A9 expressed in baculovirus-infected insect cells assessed as enzyme-mediated glucuronidation after 5 mins by Michaelis-Menten plot analysis in presence of UDPGA; assay type: ADME
[3] = substrate: COc1ccc(C(=O)Nc2cccc(O)c2NC(=O)c2ccc(N3CCCN(C)CC3)cc2)cc1; assay: Activity of human recombinant UGT1A9 expressed in baculovirus-infected insect cells assessed as enzyme-mediated glucuronidation after 5 mins by Michaelis-Menten plot analysis in presence of UDPGA and absence of fatty acid free BSA; assay type: ADME
[4] = substrate: COc1ccc(C(=O)Nc2cccc(O)c2NC(=O)c2ccc(N3CCCN(C)CC3)cc2)cc1; assay: Activity of human recombinant UGT1A9 expressed in baculovirus-infected insect cells assessed as enzyme-mediated glucuronidation after 5 mins by Michaelis-Menten plot analysis in presence of UDPGA and 0.1% fatty acid free BSA; assay type: ADME
[5] = substrate: COc1ccc(C(=O)Nc2cccc(O)c2NC(=O)c2ccc(N3CCCN(C)CC3)cc2)cc1; assay: Activity of human recombinant UGT1A9 expressed in baculovirus-infected insect cells assessed as enzyme-mediated glucuronidation after 5 mins by Michaelis-Menten plot analysis in presence of UDPGA and 0.5% fatty acid free BSA; assay type: ADME
[6] = substrate: COc1ccc(C(=O)Nc2cccc(O)c2NC(=O)c2ccc(N3CCCN(C)CC3)cc2)cc1; assay: Activity of human recombinant UGT1A9 expressed in baculovirus-infected insect cells assessed as enzyme-mediated glucuronidation after 5 mins by Michaelis-Menten plot analysis in presence of UDPGA and 2% fatty acid free BSA; assay type: ADME
[7] = substrate: COc1ccc(C(=O)Nc2cccc(O)c2NC(=O)c2ccc(N3CCCN(C)CC3)cc2)cc1; assay: Activity of human recombinant UGT1A8 expressed in baculovirus-infected insect cells assessed as enzyme-mediated glucuronidation after 10 mins in presence of UDPGA; assay type: ADME
[8] = substrate: COc1ccc(C(=O)Nc2cccc(O)c2NC(=O)c2ccc(N3CCCN(C)CC3)cc2)cc1; assay: Activity of human recombinant UGT1A7 expressed in baculovirus-infected insect cells assessed as enzyme-mediated glucuronidation after 10 mins by Michaelis-Menten plot analysis in presence of UDPGA; assay type: ADME
[9] = substrate: COc1ccc(C(=O)Nc2cccc(O)c2NC(=O)c2ccc(N3CCCN(C)CC3)cc2)cc1; assay: Activity of human recombinant UGT1A10 expressed in baculovirus-infected insect cells assessed as enzyme-mediated glucuronidation after 10 mins in presence of UDPGA; assay type: ADME

With COc1ccc(C(=O)Nc2cccc(O[C@@H]3O[C@H](C(=O)O)[C@@H](O)[C@H](O)[C@H]3O)c2NC(=O)c2ccc(N3CCCN(C)CC3)cc2)cc1 the Drug metabolism (Liver microsome) was “metabolite_detected” and the Drug metabolism [1] was “metabolite_detected”.

B1: UDP-glucuronosyltransferase 1A9 (Homo sapiens) (protein)
chain: MACTGWTSPLPLCVCLLLTCGFAEAGKLLVVPMDGSHWFTMRSVVEKLILRGHEVVVVMPEVSWQLGRSLNCTVKTYSTSYTLEDLDREFKAFAHAQWKAQVRSIYSLLMGSYNDIFDLFFSNCRSLFKDKKLVEYLKESSFDAVFLDPFDNCGLIVAKYFSLPSVVFARGILCHYLEEGAQCPAPLSYVPRILLGFSDAMTFKERVRNHIMHLEEHLLCHRFFKNALEIASEILQTPVTEYDLYSHTSIWLLRTDFVLDYPKPVMPNMIFIGGINCHQGKPLPMEFEAYINASGEHGIVVFSLGSMVSEIPEKKAMAIADALGKIPQTVLWRYTGTRPSNLANNTILVKWLPQNDLLGHPMTRAFITHAGSHGVYESICNGVPMVMMPLFGDQMDNAKRMETKGAGVTLNVLEMTSEDLENALKAVINDKSYKENIMRLSSLHKDRPVEPLDLAVFWVEFVMRHKGAPHLRPAAHDLTWYQYHSLDVIGFLLAVVLTVAFITFKCCAYGYRKCLGKKGRVKKAHKSKTH
With B1 the Km [2] was 58.2 µM, the Km [3] was 35.5 µM and the Km [4] was 22.4 µM. It also gave a Km [5] of 22.7 µM and a Km [6] of 18.3 µM.

B2: UDP-glucuronosyltransferase 1A8 (Homo sapiens) (protein)
chain: MARTGWTSPIPLCVSLLLTCGFAEAGKLLVVPMDGSHWFTMQSVVEKLILRGHEVVVVMPEVSWQLGKSLNCTVKTYSTSYTLEDLDREFMDFADAQWKAQVRSLFSLFLSSSNGFFNLFFSHCRSLFNDRKLVEYLKESSFDAVFLDPFDACGLIVAKYFSLPSVVFARGIACHYLEEGAQCPAPLSYVPRILLGFSDAMTFKERVRNHIMHLEEHLFCQYFSKNALEIASEILQTPVTAYDLYSHTSIWLLRTDFVLDYPKPVMPNMIFIGGINCHQGKPLPMEFEAYINASGEHGIVVFSLGSMVSEIPEKKAMAIADALGKIPQTVLWRYTGTRPSNLANNTILVKWLPQNDLLGHPMTRAFITHAGSHGVYESICNGVPMVMMPLFGDQMDNAKRMETKGAGVTLNVLEMTSEDLENALKAVINDKSYKENIMRLSSLHKDRPVEPLDLAVFWVEFVMRHKGAPHLRPAAHDLTWYQYHSLDVIGFLLAVVLTVAFITFKCCAYGYRKCLGKKGRVKKAHKSKTH
For B2, the Km [7] was 11.8 µM and the Vmax [7] was 0.000608 µmol/min.

B3: UDP-glucuronosyltransferase 1A7 (Homo sapiens) (protein)
chain: MARAGWTGLLPLYVCLLLTCGFAKAGKLLVVPMDGSHWFTMQSVVEKLILRGHEVVVVMPEVSWQLGRSLNCTVKTYSTSYTLEDQDREFMVFADARWTAPLRSAFSLLTSSSNGIFDLFFSNCRSLFNDRKLVEYLKESCFDAVFLDPFDACGLIVAKYFSLPSVVFARGIFCHYLEEGAQCPAPLSYVPRLLLGFSDAMTFKERVWNHIMHLEEHLFCPYFFKNVLEIASEILQTPVTAYDLYSHTSIWLLRTDFVLEYPKPVMPNMIFIGGINCHQGKPVPMEFEAYINASGEHGIVVFSLGSMVSEIPEKKAMAIADALGKIPQTVLWRYTGTRPSNLANNTILVKWLPQNDLLGHPMTRAFITHAGSHGVYESICNGVPMVMMPLFGDQMDNAKRMETKGAGVTLNVLEMTSEDLENALKAVINDKSYKENIMRLSSLHKDRPVEPLDLAVFWVEFVMRHKGAPHLRPAAHDLTWYQYHSLDVIGFLLAVVLTVAFITFKCCAYGYRKCLGKKGRVKKAHKSKTH
B3 gave a Km [8] of 59.1 µM and a Vmax [8] of 0.000725 µmol/min.

B4: UDP-glucuronosyltransferase 1A10 (Homo sapiens) (protein)
chain: MARAGWTSPVPLCVCLLLTCGFAEAGKLLVVPMDGSHWFTMQSVVEKLILRGHEVVVVMPEVSWQLERSLNCTVKTYSTSYTLEDQNREFMVFAHAQWKAQAQSIFSLLMSSSSGFLDLFFSHCRSLFNDRKLVEYLKESSFDAVFLDPFDTCGLIVAKYFSLPSVVFTRGIFCHHLEEGAQCPAPLSYVPNDLLGFSDAMTFKERVWNHIVHLEDHLFCQYLFRNALEIASEILQTPVTAYDLYSHTSIWLLRTDFVLDYPKPVMPNMIFIGGINCHQGKPLPMEFEAYINASGEHGIVVFSLGSMVSEIPEKKAMAIADALGKIPQTVLWRYTGTRPSNLANNTILVKWLPQNDLLGHPMTRAFITHAGSHGVYESICNGVPMVMMPLFGDQMDNAKRMETKGAGVTLNVLEMTSEDLENALKAVINDKSYKENIMRLSSLHKDRPVEPLDLAVFWVEFVMRHKGAPHLRPAAHDLTWYQYHSLDVIGFLLAVVLTVAFITFKCCAYGYRKCLGKKGRVKKAHKSKTH
B4 gave a Km [9] of 34.2 µM and a Vmax [9] of 0.00136 µmol/min.
